Values of other authors in patent US20260250369A1, “METHODS OF TREATING LIVER FIBROSIS, INFLAMMATION OR ASSOCIATED DISEASES USING AN ANGPTL4 ANTAGONIST” (Nanyang Technological University, priority 2022, published 2026).

Biological target: T1, human cANGPTL4 (Homo sapiens, UniProt Q9BY76)
T1 sequence (Q9BY76 186-406 limits assumed): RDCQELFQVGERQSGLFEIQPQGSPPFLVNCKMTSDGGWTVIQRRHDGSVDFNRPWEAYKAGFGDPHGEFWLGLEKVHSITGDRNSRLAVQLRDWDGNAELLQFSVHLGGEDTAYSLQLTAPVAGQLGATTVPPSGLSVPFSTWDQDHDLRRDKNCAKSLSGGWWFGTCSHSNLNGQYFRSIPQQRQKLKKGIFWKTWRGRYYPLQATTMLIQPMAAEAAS

Effect on mitochondrial activities and glucose regulations of ANGPTL4: does not affect
B1: mAb11F6C4: murine monoclonal antibody directed against human cANGPTL4; heavy chain SEQ ID NO 15, light chain SEQ ID NO 16 (antibody, V domains shown)
VH: QVQLQESGPGILKPSQTLSLTCSFSGFSLSTSGMGVGWIRQPSGKGLERLAHIWWDDDKYYNPSLKSQLTISKDTSRNQVFLKIISVDTADTATYYCARKDYGSSYDYRGQGTTVTVS
VL: DIELTQSPASLAVSLGQRATISCKASQSVDYDGDSYLNRFQQKPGQPPKLLIYTASNLESGIPARFSGSGSGTDFTLNIHPVEEEDAATYYCQQSNEDPWTFGGGTKLEIKR
Epitope targeted: target an epitope that resides within the C-terminus of human ANGPTL4
